In patent US6509443 one finds binding result, shift of the binding curve against G1S-A70V phage and IC50 data, which are given here for two molecules.

The chains are these.
T1: IGF-I F49A on phage (G1S-A70V background, gene III fusion) (human; bacteriophage M13)
T1 chain: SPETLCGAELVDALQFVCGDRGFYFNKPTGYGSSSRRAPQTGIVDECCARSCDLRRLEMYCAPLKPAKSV

T2: IGF-I T4A on phage (G1S-A70V background, gene III fusion) (human; bacteriophage M13)
T2 construct: monovalent on M13 phage; not shown: M13 gene III fragment (residues 249-406) and the junction after residue 70
T2 chain: T1 chain with T4A, A49F

T3: IGF-I L5A on phage (G1S-A70V background, gene III fusion) (human; bacteriophage M13)
T3 construct: monovalent on M13 phage; not shown: M13 gene III fragment (residues 249-406) and the junction after residue 70
T3 chain: T1 chain with L5A, A49F

B1: IGF-I E3A on phage (G1S-A70V background, gene III fusion) (ligand)
chain: T1 chain with E3A, A49F
notes: monovalent on M13 phage; not shown: M13 gene III fragment (residues 249-406) and the junction after residue 70
B2: human IGFBP-1 (other, UniProt P08833 26-259, looked up)
chain: APWQCAPCSAEKLALCPPVSASCSEVTRSAGCGCCPMCALPLGAACGVATARCARGLSCRALPGEQQPLHALTRGQGACVQESDASAPHAAEAGSPESPESTEITEEELLDNFHLMAPSEEDHSILWDAISTYDGSKALHVTNIKKWKEPCRIELYRVVESLAKAQETSGEEISKFYLPNCNKNGFYHSRQCETSMDGEAGLCWCVYPWNGKRIPGSPEIRGDPNCQIYFNVQN
notes: mature

Experiment [1] deals with T4, recombinant human IGFBP-3 (human, UniProt P17936 28-291).
T4 construct: mature
T4 sequence (P17936 28-291): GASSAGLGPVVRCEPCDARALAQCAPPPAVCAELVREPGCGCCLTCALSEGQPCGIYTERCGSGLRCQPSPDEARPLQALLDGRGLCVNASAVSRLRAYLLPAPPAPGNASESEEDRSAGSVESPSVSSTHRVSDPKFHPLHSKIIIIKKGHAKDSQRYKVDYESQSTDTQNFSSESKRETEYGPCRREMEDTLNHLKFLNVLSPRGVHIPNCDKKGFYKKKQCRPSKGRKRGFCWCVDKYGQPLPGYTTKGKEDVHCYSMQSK
Briefly: competitive phage ELISA. As to the method:
(§1) Phage particles were harvested and resuspended in PBS buffer as described in Lowman, H. B., "Phage Display of Peptide Libraries on Protein Scaffolds," in Cabilly, S. (ed.), *Combinatorial Peptide Library Protocols* (Humana Press Inc.: Totowa, N.J., 1998), pp. 249–264. Then phage concentrations were normalized to yield a maximal ELISA signal of 0.2–0.4 for each mutant (Lowman, in Cabilly, S. (ed.), supra). Threefold serial dilutions of soluble competitor were prepared on non-absorbent microtiter plates (Nunc, F, 96 wells) with binding buffer (0.5% TWEEN™ 20/PBS) containing phage at the previously-determined concentrations. […] After blocking, the plates containing immobilized target were washed with 0.05% TWEEN™/PBS buffer and subsequently incubated with 80 μl/well of the premixed phage-competitor solutions for 1 hour at room temperature. […] Numbers in Table I represent mean±standard deviation of individually assessed $IC50$ values.
(§2) At least two different clones of every mutant were tested.

The target in the experiment “human IGFBP-1” is B2. In words: competitive phage ELISA. As to the method:
as §1, §2

In experiment [2] the target is T1, IGF-I F49A on phage (G1S-A70V …). Briefly: phage ELISA on coated IGFBP-3, soluble IGFBP-1 as competitor (FIG. 3A). The note with it: remark: other sources report otherwise.
Experiment [3] addresses B1. In words: competitive phage ELISA, soluble vs coated IGFBP-1. As to the method: as §1, §2
The target of experiment [4] is T5, IGF-I V70A on phage (single mutant of G1S-A70V, gene III fusion) (human; bacteriophage M13).
T5 construct: monovalent on M13 phage; not shown: M13 gene III fragment (residues 249-406) and the junction after residue 70
In words: competitive phage ELISA, soluble vs coated IGFBP-1. As to the method: as §1, §2

For experiment [5], the target named is T2, IGF-I T4A on phage (G1S-A70V …). Briefly: competitive phage ELISA, soluble vs coated IGFBP-1. As to the method:
as §1, §2

The target in experiment [6] is T6, IGF-I S1G on phage (single mutant of G1S-A70V, gene III fusion) (human; bacteriophage M13, UniProt P05019 49-117).
T6 construct: monovalent on M13 phage; not shown: M13 gene III fragment (residues 249-406) and the junction after residue 70
Briefly: competitive phage ELISA, soluble vs coated IGFBP-1. As to the method:
as §1, §2

The target in experiment [7] is T7, IGF-I S69A on phage (G1S-A70V background, gene III fusion) (human; bacteriophage M13).
T7 construct: monovalent on M13 phage; not shown: M13 gene III fragment (residues 249-406) and the junction after residue 70
In words: competitive phage ELISA, soluble vs coated IGFBP-1. As to the method: as §1, §2

Experiment [8] deals with T3, IGF-I L5A on phage (G1S-A70V …). Briefly: competitive phage ELISA, soluble vs coated IGFBP-1. As to the method: as §1, §2

Positions count from the first letter of the chain named. Names and notes keep the numbering of the source.

In the case of B1, the binding result (in experiment [1]; in the experiment with human IGFBP-1) was “binds” throughout.

Consider B2, for which, in experiment [2], the shift of the binding curve against G1S-A70V phage is greater than 100 fold. In addition, the IC50 was 278 nM in experiment [3]; 19.1 nM in experiment [4]; 19.4 nM in experiment [5]; 11.2 nM in experiment [6]; 12.8 nM in experiment [7]; 55.3 nM in [8].
